Reference: article PMC9666628 (Nature Communications, 2022)
Positions count from the first letter of the chain named. Each block holds one binder with its values, some of them ahead of it.

How the values were obtained:
Details in all cases: both partners purified
[1] = biological target: T1, Cbx7.V1 (tags removed, used for FP and ITC) (human, UniProt O95931 7-66, E8D (printed as the back-mutation D8E) | Q9D | V10I (printed as the …)); assay: fluorescence polarisation; 0.5 nM FITC-labelled peptide; chromodomains 200-0.2 µM (wild type) or 50 µM-50 nM (Cbx7.V1 and all Cbx.VDs); 30 min at 25 °C; 25 mM HEPES pH 7.5, 150 mM NaCl, 1 mM DTT, 0.01% TritonX-100; one-site total binding model
T1 construct: chromodomain of human Cbx7 (Cbx7-chromo), UniProt O95931; source: E. coli BL21(DE3), purified (Ni-NTA; tags removed with TEV protease)
T1 sequence: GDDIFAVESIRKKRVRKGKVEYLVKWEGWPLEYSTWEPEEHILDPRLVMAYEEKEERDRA

[2] = biological target: T2, wild-type Cbx7 chromodomain (tags removed) (human, UniProt O95931 7-66); assay: as above
T2 construct: chromodomain of human Cbx7 (Cbx7-chromo), UniProt O95931; also called Cbx7.wt; source: E. coli BL21(DE3), purified (Ni-NTA; tags removed with TEV protease)
T2 sequence: T1 sequence with D2E, D3Q, I4V, E27K, L31P, E32K

[3] = biological target: T3, Cbx7 Q9D chromodomain (tags removed) (human, UniProt O95931 7-66, Q9D); assay: as above
T3 construct: chromodomain of human Cbx7 (Cbx7-chromo), UniProt O95931; source: E. coli BL21(DE3), purified (Ni-NTA; tags removed with TEV protease)
T3 sequence: T1 sequence with D2E, I4V, E27K, L31P, E32K

[4] = biological target: T4, Cbx7 K33E chromodomain (tags removed) (human, UniProt O95931 7-66, K33E); assay: as above
T4 construct: chromodomain of human Cbx7 (Cbx7-chromo), UniProt O95931; source: E. coli BL21(DE3), purified (Ni-NTA; tags removed with TEV protease)
T4 sequence: T1 sequence with D2E, D3Q, I4V, L31P, E32K

[5] = biological target: T5, Cbx7.VD chromodomain, Q9D/K33E (tags removed) (human, UniProt O95931 7-66, Q9D | K33E); assay: as above
T5 construct: chromodomain of human Cbx7 (Cbx7-chromo), UniProt O95931; source: E. coli BL21(DE3), purified (Ni-NTA; tags removed with TEV protease)
T5 sequence: T1 sequence with D2E, I4V, L31P, E32K

[6] = biological target: T6, wild-type Cbx2 chromodomain (tags removed) (human, UniProt Q14781 9-62); assay: as above
T6 construct: chromodomain of human Cbx2; also called Cbx2.wt; source: E. coli BL21(DE3), purified (Ni-NTA; tags removed with TEV protease)
T6 sequence: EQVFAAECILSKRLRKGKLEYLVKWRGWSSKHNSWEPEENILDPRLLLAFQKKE

[7] = biological target: T7, wild-type Cbx8 chromodomain (tags removed) (human, UniProt Q9HC52 8-61); assay: as above
T7 construct: chromodomain of human Cbx8; also called Cbx8.wt; source: E. coli BL21(DE3), purified (Ni-NTA; tags removed with TEV protease)
T7 sequence: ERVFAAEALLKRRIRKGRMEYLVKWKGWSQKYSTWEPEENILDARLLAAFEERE

Cbx7.V1 = biological target: T8, Cbx7.V1 (human, UniProt O95931 7-66, E8D (back-mutant printed as D8E) | Q9D (back-mutant printed as D9Q) | V10I …); assay: fluorescence polarisation; 0.5 nM FITC-labeled peptide, chromodomain serially diluted (wild type 200-0.2 µM; Cbx7.V1 50 µM-50 nM); 25 mM HEPES pH 7.5, 150 mM NaCl, 1 mM DTT, 0.01% TritonX-100; 30 min at 25 °C; one-site total binding model
T8 construct: also called Cbx7.5; source: E. coli BL21(DE3), purified (Ni-NTA); tags removed with TEV protease
T8 sequence: T1 sequence

Cbx7 Q9D = biological target: T9, Cbx7 Q9D (human, UniProt O95931 7-66, Q9D); assay: as above
T9 construct: chromodomain of human Cbx7 (UniProt O95931) with Q9D; source: E. coli BL21(DE3), purified (Ni-NTA); tags removed with TEV protease
T9 sequence: T1 sequence with D2E, I4V, E27K, L31P, E32K

Cbx7 K33E = biological target: T10, Cbx7 K33E (human, UniProt O95931 7-66, K33E); assay: as above
T10 construct: chromodomain of human Cbx7 (UniProt O95931) with K33E; source: E. coli BL21(DE3), purified (Ni-NTA); tags removed with TEV protease
T10 sequence: T1 sequence with D2E, D3Q, I4V, L31P, E32K

[8] = biological target: T1, Cbx7.V1 (tags removed, used for FP and …); assay: ITC; peptides (1.2-2 mM, syringe) titrated into Cbx7.V1 (70-112 µM, cell); 25 °C; PBS pH 7.4, 1 mM TCEP; one-site binding model
[9] = biological target: T11, Cbx7.V1 (His6- and Flag-tagged construct, used for BLI) (human, UniProt O95931 7-66, E8D (printed as the back-mutation D8E) | Q9D | V10I (printed as the …)); assay: BLI; biotinylated peptides immobilised on streptavidin biosensor tips (Octet HTX); chromodomains in solution at 5 or 1 µM; 25 °C; 25 mM HEPES pH 7.0, 150 mM NaCl, 1 mg/ml BSA, 0.01% Tween-20; steady-state fit, Langmuir model
T11 construct: chromodomain of human Cbx7 (Cbx7-chromo), UniProt O95931; removal of the tags is told only for FP and ITC; source: E. coli BL21(DE3), purified (Ni-NTA)
T11 sequence: T1 sequence

Cbx7.V1 D8E back-mutant = biological target: T12, Cbx7.V1 D8E back-mutant (human, UniProt O95931 7-66, Q9D | V10I (printed as the back-mutation I10V) | K33E | P37L (printed as the …)); assay: as above
T12 construct: chromodomain of human Cbx7, UniProt O95931; Cbx7.V1 with residue 8 back to the wild type; source: E. coli BL21(DE3), purified (Ni-NTA)
T12 sequence: T1 sequence with D2E

Cbx7.V1 D9Q back-mutant = biological target: T13, Cbx7.V1 D9Q back-mutant (human, UniProt O95931 7-66, E8D (printed as the back-mutation D8E) | V10I (printed as the back-mutation …)); assay: as above
T13 construct: chromodomain of human Cbx7, UniProt O95931; Cbx7.V1 with residue 9 back to the wild type; source: E. coli BL21(DE3), purified (Ni-NTA)
T13 sequence: T1 sequence with D3Q

Cbx7.V1 I10V back-mutant = biological target: T14, Cbx7.V1 I10V back-mutant (human, UniProt O95931 7-66, E8D (printed as the back-mutation D8E) | Q9D | K33E | P37L (printed as the …)); assay: as above
T14 construct: chromodomain of human Cbx7, UniProt O95931; Cbx7.V1 with residue 10 back to the wild type; source: E. coli BL21(DE3), purified (Ni-NTA)
T14 sequence: T1 sequence with I4V

Cbx7.V1 E33K back-mutant = biological target: T15, Cbx7.V1 E33K back-mutant (human, UniProt O95931 7-66, E8D (printed as the back-mutation D8E) | Q9D | V10I (printed as the …)); assay: as above
T15 construct: chromodomain of human Cbx7, UniProt O95931; Cbx7.V1 with residue 33 back to the wild type; source: E. coli BL21(DE3), purified (Ni-NTA)
T15 sequence: T1 sequence with E27K

Cbx7.V1 L37P back-mutant = biological target: T16, Cbx7.V1 L37P back-mutant (human, UniProt O95931 7-66, E8D (printed as the back-mutation D8E) | Q9D | V10I (printed as the …)); assay: as above
T16 construct: chromodomain of human Cbx7, UniProt O95931; Cbx7.V1 with residue 37 back to the wild type; source: E. coli BL21(DE3), purified (Ni-NTA)
T16 sequence: T1 sequence with L31P

Cbx7.V1 E38K back-mutant = biological target: T17, Cbx7.V1 E38K back-mutant (human, UniProt O95931 7-66, E8D (printed as the back-mutation D8E) | Q9D | V10I (printed as the …)); assay: as above
T17 construct: chromodomain of human Cbx7, UniProt O95931; Cbx7.V1 with residue 38 back to the wild type; source: E. coli BL21(DE3), purified (Ni-NTA)
T17 sequence: T1 sequence with E32K

Binder: KQLATKAARKSAPATGGVK (trimethyl-lysine at K27; fluorescein isothiocyanate (FITC) at the N-terminus) [H3K27me3 peptide, N-terminal FITC]
Kd [1]: 4 µM
Kd [2]: 110 µM
Kd [3]: 100 µM
Kd [4]: 20 µM
Kd [5]: 5 µM
Kd [6]: 100 µM
Kd [7]: > 200 µM

B3: H3K27me3 peptide, N-terminal biotin (peptide)
chain: KQLATKAARKSAPATGGVK
modifications: trimethyl-lysine at K27; biotin followed by an aminohexanoic acid linker at the N-terminus
Kd [8]: 7.8 µM
stoichiometry N [8]: ~1
Kd [9]: 2 µM
Kd (Cbx7.V1 D8E back-mutant): 2 µM
Kd (Cbx7.V1 D9Q back-mutant): 2000 nM
Kd (Cbx7.V1 I10V back-mutant): 2000 nM
Kd (Cbx7.V1 E33K back-mutant): > 20 µM
Kd (Cbx7.V1 L37P back-mutant): 2500 nM
Kd (Cbx7.V1 E38K back-mutant): 1500 nM

B4: H3K9me3 peptide, N-terminal biotin (peptide)
chain: ARTKQTARKSTGGKAPR
modifications: trimethyl-lysine at K9; biotin followed by an aminohexanoic acid linker at the N-terminus
Kd [8]: 7 µM
stoichiometry N [8]: ~1
Kd [9]: 4.5 µM
Kd (Cbx7.V1 D8E back-mutant): 5 µM
Kd (Cbx7.V1 D9Q back-mutant): > 20000 nM
Kd (Cbx7.V1 I10V back-mutant): 3500 nM
Kd (Cbx7.V1 E33K back-mutant): 10 µM
Kd (Cbx7.V1 L37P back-mutant): 3000 nM
Kd (Cbx7.V1 E38K back-mutant): 2000 nM

The next lines start with the values.

Kd (Cbx7.V1): 7.2 µM
Kd (Cbx7 Q9D): 12.3 µM
Kd (Cbx7 K33E): 18 µM
B1: FITC-labeled H3K9me3 peptide (peptide)
peptide: ARTKQTARKSTGGKAPR
modifications: trimethyl-lysine at K9 (Kme3); fluorescein isothiocyanate (FITC) on the N-terminus
notes: histone H3 N-terminal tail, residues 1-17; source: synthetic peptide (GenScript)

Kd (Cbx7.V1): 4.2 µM
Kd (Cbx7 Q9D): 97 µM
Kd (Cbx7 K33E): 17.5 µM
B2: FITC-labeled H3K27me3 peptide (peptide)
peptide: KQLATKAARKSAPATGGVK
modifications: trimethyl-lysine at K27 (Kme3); fluorescein isothiocyanate (FITC) on the N-terminus
notes: histone H3 tail, residues 18-36; source: synthetic peptide (GenScript)
